Data published in patent US20210170043A1, “DC-SIGN ANTIBODY CONJUGATES COMPRISING STING AGONISTS” (NOVARTIS AG, priority 2018, published 2021).

T1: human DC-SIGN (Homo sapiens, UniProt Q9NNX6)
T1 construct: expressed in transfected cells
T1 sequence (Q9NNX6 1-404): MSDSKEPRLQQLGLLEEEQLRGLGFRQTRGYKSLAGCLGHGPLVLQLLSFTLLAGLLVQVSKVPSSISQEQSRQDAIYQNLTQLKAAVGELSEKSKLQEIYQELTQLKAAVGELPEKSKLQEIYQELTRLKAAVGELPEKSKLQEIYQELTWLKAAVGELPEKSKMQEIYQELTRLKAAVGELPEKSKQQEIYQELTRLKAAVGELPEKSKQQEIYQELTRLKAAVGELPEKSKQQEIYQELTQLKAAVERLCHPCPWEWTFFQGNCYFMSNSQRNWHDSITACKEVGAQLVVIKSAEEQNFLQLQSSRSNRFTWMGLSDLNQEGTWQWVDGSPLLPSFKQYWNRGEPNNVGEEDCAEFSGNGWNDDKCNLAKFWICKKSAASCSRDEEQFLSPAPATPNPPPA

T2: human L-SIGN (Homo sapiens, UniProt Q9H2X3)
T2 construct: expressed in transfected cells; host or cells: K562, retroviral transduction
T2 sequence (Q9H2X3 1-399): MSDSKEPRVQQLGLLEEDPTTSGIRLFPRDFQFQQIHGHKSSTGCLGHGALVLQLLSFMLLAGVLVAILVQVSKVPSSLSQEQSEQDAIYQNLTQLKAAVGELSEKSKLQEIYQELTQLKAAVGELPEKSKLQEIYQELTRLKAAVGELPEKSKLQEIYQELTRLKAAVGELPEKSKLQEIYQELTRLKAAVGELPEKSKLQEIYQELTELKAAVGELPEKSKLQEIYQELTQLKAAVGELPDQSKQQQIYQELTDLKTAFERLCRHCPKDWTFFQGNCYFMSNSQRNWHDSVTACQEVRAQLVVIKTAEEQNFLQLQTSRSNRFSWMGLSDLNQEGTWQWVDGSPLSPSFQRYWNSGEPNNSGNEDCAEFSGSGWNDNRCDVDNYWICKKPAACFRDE


Assays:
human DC-SIGN [1] = target: T1, human DC-SIGN; experiment: FACS binding to K562 cells expressing human DC-SIGN; conditions: FACS MFI
Protocol: (§1) The affinity of various antibodies and ADCs to DC-SIGN and its species orthologues was determined using FACS. Purified IgGs were titrated to determine EC50 values for binding to cell surface expressed DC-SIGN.
(§2) For this purpose, human DC-SIGN expressing or cynomolgus monkey DC-SIGN expressing stable CHO cell lines or K562 expressing DC-SIGN or K562 expressing L-SIGN cell lines were checked for density and viability using VICELL (Beckman Coulter), and washed once with 4° C. PBS. Cells were stained with DAPI (0.5 ug/mL) diluted in PBS for 30 min on ice. Cells were diluted into 4° C. FACS buffer (PBS, 10 mM EDTA, 2% FBS). 125 μl of cells were seeded (10,000 cells/well) into 96-well v-bottom plates (Nunc cat#442587) and centrifuged for 4 min at 1500 rpm at 4° C. Supernatant was removed. Cells were incubated with a serial dilution of each anti-DC-SIGN antibody in FACS buffer at concentrations ranging across several logs with a top concentration no higher than 50 μg/mL for 60 minutes at 4° C. Following incubation, cells were spun down (1500 rpm, 4 min, 4° C.) and washed two times with FACS buffer. A fluorophore-conjugated anti-hFc gamma-AF-647 (Southern Biotechnology) detection antibody was added at 1:400 and samples were incubated for 1 h on ice in the dark. Following incubation, FACS buffer was added, and the cells were spun down (1500 rpm, 4 min, 4° C.) and washed two times with FACS buffer. After the final wash, cells were resuspended in Fixative Buffer (Biolegend, 420801) and 90 μl of FACS buffer followed by readout on the flow cytometry machine (BD LSRFortessa Cell Analyzer; Cat #647177). Geometric Mean fluorescence intensity (MFI) of live, single cells was calculated in Flowjo 10.4.2 and exported into Graphpad Prism7 for EC50 determination.

[2] = tested on: cynomolgus monkey DC-SIGN; experiment: FACS binding to CHO cells stably expressing cynomolgus monkey DC-SIGN; conditions: FACS MFI, average
Protocol: as §1, §2
In a similar experiment the antibodies were tested for cross-reactivity using engineered isogenic matched cell line.

human DC-SIGN [3] = target: T1, human DC-SIGN; experiment: FACS binding to CHO cells stably expressing human DC-SIGN; conditions: FACS MFI, average
Protocol: as §1, §2

human L-SIGN = target: T2, human L-SIGN; experiment: FACS binding to K562 cells expressing human L-SIGN (selectivity); conditions: FACS MFI
Protocol: as §1, §2
Selectivity was assessed by measuring apparent binding affinities to isogenic cell pairs engineered to overexpress DC-SIGN as well as cell lines expressing DC-SIGN paralog L-SIGN.

Chain of cynomolgus monkey DC-SIGN (as listed by the source): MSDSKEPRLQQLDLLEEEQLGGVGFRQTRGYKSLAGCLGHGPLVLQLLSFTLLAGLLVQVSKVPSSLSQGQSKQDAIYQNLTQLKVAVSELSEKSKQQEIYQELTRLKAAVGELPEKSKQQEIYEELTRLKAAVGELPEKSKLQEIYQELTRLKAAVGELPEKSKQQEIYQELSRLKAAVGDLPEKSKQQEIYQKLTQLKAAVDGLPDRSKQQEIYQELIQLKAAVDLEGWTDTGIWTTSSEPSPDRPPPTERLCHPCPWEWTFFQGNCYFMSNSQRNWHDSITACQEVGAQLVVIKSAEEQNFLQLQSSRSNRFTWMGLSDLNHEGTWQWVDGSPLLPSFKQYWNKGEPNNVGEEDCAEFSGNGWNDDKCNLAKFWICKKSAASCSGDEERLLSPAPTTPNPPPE

Row | Molecule | human DC-SIGN K562 EC50 (human DC-SIGN [1]) [µg/mL] | cyno DC-SIGN CHO EC50 (ug/mL) ave. [2] [µg/mL] | human DC-SIGN CHO EC50 (ug/mL) ave. (human DC-SIGN [3]) [µg/mL] | human L-SIGN K562 EC50 (human L-SIGN) [µg/mL]
1 | 958N05 S93A: optimization of sequences by removal of post-translational modifications, non-preferred sites; substitutions made by site directed mutagenesis (antibody) heavy: QVTLRESGPALVKPTQTLTLTCTFSGFSLSTSGISVSWIRQPPGKALEWLALIDWDDDKYYSTSLKTRLTISKDTSKNQVVLTMTNMDPVDTATYYCARTPSGSYGRYFDLWGRGTLVTVSSASTKGPSVFPLAPSSKSTSGGTAALGCLVKDYFPCPVTVSWNSGALTSGVHTFPAVLQSSGLYSLSSVVTVPSSSLGTQTYICNVNHKPSNTKVDKRVEPKSCDKTHTCPPCPAPELLGGPSVFLFPPKPKDTLMISRTPEVTCVVVAVSHEDPEVKFNWYVDGVEVHNAKTKPREEQYNSTYRVVSVLTVLHQDWLNGKEYKCKVSNKALAAPIEKTISKAKGQPREPQVYTLPPSREEMTKNQVSLTCLVKGFYPCDIAVEWESNGQPENNYKTTPPVLDSDGSFFLYSKLTVDKSRWQQGNVFSCSVMHEALHNHYTQKSLSLSPGK light: DIQLTQSPSTLSASVGDRVTITCRASQSISNWLAWYQQKPGKAPKLLIYKASSLESGVPSRFTGSGSGTEFTLTISSLQPDDFATYYCQQYNAYWTFGQGTKVEIKRTVAAPSVFIFPPSDEQLKSGTASVVCLLNNFYPREAKVQWKVDNALQSGNSQESVTEQDSKDSTYSLSSTLTLSKADYEKHKVYACEVTHQGLSSPVTKSFNRGEC | 0.060 | 0.16 | 0.13 | >10
2 | 960K03 N92Q: optimization of sequences by removal of post-translational modifications, non-preferred sites; substitutions made by site directed mutagenesis (antibody) heavy: QVTLRESGPALVKPTQTLTLTCTFSGFSLSTGGMSVSWIRQPPGKALEWLALIDWDDDKYYSTSLKTRLTISKDTSKNQLVLTMTNMDPVDTATYYCARAHSGSYFDFWGQGTLVTVSSASTKGPSVFPLAPSSKSTSGGTAALGCLVKDYFPCPVTVSWNSGALTSGVHTFPAVLQSSGLYSLSSVVTVPSSSLGTQTYICNVNHKPSNTKVDKRVEPKSCDKTHTCPPCPAPELLGGPSVFLFPPKPKDTLMISRTPEVTCVVVAVSHEDPEVKFNWYVDGVEVHNAKTKPREEQYNSTYRVVSVLTVLHQDWLNGKEYKCKVSNKALAAPIEKTISKAKGQPREPQVYTLPPSREEMTKNQVSLTCLVKGFYPCDIAVEWESNGQPENNYKTTPPVLDSDGSFFLYSKLTVDKSRWQQGNVFSCSVMHEALHNHYTQKSLSLSPGK light: DIQMTQSPSTLSASVGDRVTITCRASQRISNWLAWYQQKPGKAPKLLIYKASSLESGVPSRFSGSGSGTEFTLTISSLQPDDFATYYCQQFQSYWTFGQGTKVEIKRTVAAPSVFIFPPSDEQLKSGTASVVCLLNNFYPREAKVQWKVDNALQSGNSQESVTEQDSKDSTYSLSSTLTLSKADYEKHKVYACEVTHQGLSSPVTKSFNRGEC | 0.021 | 0.04 | 0.08 | >10
